Data as given in IntAct's records for PubMed 10659709.

B1: Regulatory protein NPR1 (Arabidopsis thaliana (Mouse-ear cress)), P93002 (parent)
chain: MDTTIDGFADSYEISSTSFVATDNTDSSIVYLAAEQVLTGPDVSALQLLSNSFESVFDSPDDFYSDAKLVLSDGREVSFHRCVLSARSSFFKSALAAAKKEKDSNNTAAVKLELKEIAKDYEVGFDSVVTVLAYVYSSRVRPPPKGVSECADENCCHVACRPAVDFMLEVLYLAFIFKIPELITLYQRHLLDVVDKVVIEDTLVILKLANICGKACMKLLDRCKEIIVKSNVDMVSLEKSLPEELVKEIIDRRKELGLEVPKVKKHVSNVHKALDSDDIELVKLLLKEDHTNLDDACALHFAVAYCNVKTATDLLKLDLADVNHRNPRGYTVLHVAAMRKEPQLILSLLEKGASASEATLEGRTALMIAKQATMAVECNNIPEQCKHSLKGRLCVEILEQEDKREQIPRDVPPSFAVAADELKMTLLDLENRVALAQRLFPTEAQAAMEIAEMKGTCEFIVTSLEPDRLTGTKRTSPGVKIAPFRILEEHQSRLKALSKTVELGKRFFPRCSAVLDQIMNCEDLTQLACGEDDTAEKRLQKKQRYMEIQETLKKAFSEDNLELGNSSLTDSTSSTSKSTGGKRSNRKLSHRRR
partner: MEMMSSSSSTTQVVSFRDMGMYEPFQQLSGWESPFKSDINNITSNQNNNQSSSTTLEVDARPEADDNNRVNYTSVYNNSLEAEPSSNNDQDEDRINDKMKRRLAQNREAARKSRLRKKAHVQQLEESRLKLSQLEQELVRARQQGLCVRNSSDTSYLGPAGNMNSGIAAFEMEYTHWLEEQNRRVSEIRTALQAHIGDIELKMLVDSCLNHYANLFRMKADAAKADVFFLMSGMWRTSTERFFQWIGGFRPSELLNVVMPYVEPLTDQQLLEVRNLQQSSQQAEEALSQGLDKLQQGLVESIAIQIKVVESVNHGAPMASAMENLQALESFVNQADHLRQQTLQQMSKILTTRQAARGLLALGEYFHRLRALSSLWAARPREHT
B2: Regulatory protein NPR1 (Arabidopsis thaliana (Mouse-ear cress)), P93002 (parent)
chain: B1 chain
partner: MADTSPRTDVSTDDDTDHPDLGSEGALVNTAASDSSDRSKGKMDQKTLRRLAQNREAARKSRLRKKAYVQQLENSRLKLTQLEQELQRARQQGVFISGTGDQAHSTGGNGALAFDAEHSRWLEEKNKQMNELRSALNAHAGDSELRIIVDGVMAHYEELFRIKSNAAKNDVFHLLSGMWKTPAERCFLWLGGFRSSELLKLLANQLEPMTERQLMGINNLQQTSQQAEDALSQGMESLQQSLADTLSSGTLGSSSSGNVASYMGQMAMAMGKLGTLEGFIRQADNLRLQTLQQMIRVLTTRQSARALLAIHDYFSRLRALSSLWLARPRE

Variants of: B1
Settings: with tga3_arath TGA3, Q39234

| effect of a mutation on the interaction | Variant |
| --- | --- |
| decreasing interaction strength | H300Y |
| decreasing interaction strength | P342S |
| decreasing interaction strength | C150Y |
| decreasing interaction strength | H334Y |

Variants of: B2
Settings: with tga2_arath TGA2, P43273

| effect of a mutation on the interaction | Variant |
| --- | --- |
| disrupting interaction | C150Y |
| disrupting interaction | P342S |
| disrupting interaction | H334Y |
| disrupting interaction | H300Y |
